According to patent publication US10005846 (LIFEARC, dated 2018):

T1: human transglutaminase type 2 (TG2) (human, UniProt P21980 1-687)
T1 sequence: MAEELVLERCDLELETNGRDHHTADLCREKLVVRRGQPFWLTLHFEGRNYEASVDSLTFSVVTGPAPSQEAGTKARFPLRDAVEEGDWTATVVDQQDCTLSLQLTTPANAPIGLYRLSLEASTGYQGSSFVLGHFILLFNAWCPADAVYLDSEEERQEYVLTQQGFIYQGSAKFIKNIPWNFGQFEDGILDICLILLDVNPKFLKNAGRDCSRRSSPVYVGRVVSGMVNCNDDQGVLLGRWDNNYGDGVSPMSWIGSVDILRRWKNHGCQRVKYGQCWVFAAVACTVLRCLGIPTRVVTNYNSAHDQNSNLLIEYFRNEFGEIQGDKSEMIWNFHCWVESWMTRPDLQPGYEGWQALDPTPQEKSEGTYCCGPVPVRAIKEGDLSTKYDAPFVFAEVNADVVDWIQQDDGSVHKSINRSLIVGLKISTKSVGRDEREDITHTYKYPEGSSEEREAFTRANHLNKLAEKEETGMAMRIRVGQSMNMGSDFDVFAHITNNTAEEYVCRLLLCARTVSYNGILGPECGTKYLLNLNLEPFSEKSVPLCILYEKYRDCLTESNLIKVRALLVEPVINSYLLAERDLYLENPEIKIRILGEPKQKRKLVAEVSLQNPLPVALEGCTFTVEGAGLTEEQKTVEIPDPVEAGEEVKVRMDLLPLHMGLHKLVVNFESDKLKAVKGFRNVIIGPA

T2: cynomolgus monkey TG2 (cynomolgus monkey, UniProt A0A2K5VXI8 1-687)
T2 sequence: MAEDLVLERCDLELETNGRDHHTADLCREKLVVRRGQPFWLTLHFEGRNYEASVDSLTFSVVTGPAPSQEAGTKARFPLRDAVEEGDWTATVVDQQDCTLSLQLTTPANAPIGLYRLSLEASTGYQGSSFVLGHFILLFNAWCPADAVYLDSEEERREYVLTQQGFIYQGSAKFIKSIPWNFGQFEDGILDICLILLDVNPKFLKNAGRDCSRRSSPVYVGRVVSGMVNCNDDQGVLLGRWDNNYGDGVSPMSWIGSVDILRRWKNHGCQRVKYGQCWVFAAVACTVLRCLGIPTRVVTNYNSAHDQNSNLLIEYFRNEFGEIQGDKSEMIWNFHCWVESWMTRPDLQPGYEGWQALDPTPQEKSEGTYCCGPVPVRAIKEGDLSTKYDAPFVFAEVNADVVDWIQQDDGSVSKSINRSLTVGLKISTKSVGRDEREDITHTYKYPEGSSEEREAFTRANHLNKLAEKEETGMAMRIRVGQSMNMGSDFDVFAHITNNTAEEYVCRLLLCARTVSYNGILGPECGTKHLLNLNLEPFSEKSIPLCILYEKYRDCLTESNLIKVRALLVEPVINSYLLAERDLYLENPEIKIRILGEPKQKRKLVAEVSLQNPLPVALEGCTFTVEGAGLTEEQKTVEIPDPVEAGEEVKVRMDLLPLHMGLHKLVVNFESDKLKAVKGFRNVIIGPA


Legend:
[1] = molecular target: T1, human transglutaminase type 2 (TG2); test: cell-based or functional assay
[2] = molecular target: T2, cynomolgus monkey TG2; test: cell-based or functional assay
[3] = molecular target: T1, human transglutaminase type 2 (TG2); test: ELISA on immobilised human TG2; r2 0.9794; EC50 95% confidence range 0.01199 to 0.03342 [panel B]
Protocol: (§1) Antibody binding to human and cynomolgus monkey TG2 was determined in an ELISA assay. Clear polystyrene "Maxisorp" 96-well plates (Nunc) were coated with 50 ng purified human or cynomogulus monkey TG2 in 50 µl 0.05 M carbonate-bicarbonate buffer pH 9.6 at 4° C. overnight. Control wells were coated with 50 µl 100 µg/ml bovine serum albumin (BSA). Plates were washed 3× with 300 µl phosphate-buffered saline pH7.4 (PBS) containing 0.1% Tween 20 (PBST) and blocked with 300 µl 3% w/v Marvel skimmed milk in PBS for 1 hour at room temperature. After 3× wash with PBST, 50 µl protein-A purified chimeric or humanised anti-TG2 antibodies or human IgG1 kappa […] control antibody or CUB7402 (Abcam) were serially diluted 4-fold from a top concentration of 50 nM in PBS, and added to the plate in duplicate. […] After 3× washes with PBST, the plates were developed with 50 µl TMB substrate (Sigma) for 5 min at room temperature before stopping the reaction with 25 µl 0.5M H2SO4 and reading absorbance at 450 nm in a microtiter plate reader (BioTek EL808). Dose response curves were analysed and EC50 values and other statistical parameters determined using a 4-parameter logistical fit of the data (GraphPad Prism).

[4] = molecular target: T2, cynomolgus monkey TG2; test: ELISA on immobilised cynomolgus monkey TG2; r2 0.9766; EC50 95% confidence range 0.04047 to 0.09246 [panel B]
Protocol: as §1

[5] = molecular target: T1, human transglutaminase type 2 (TG2); test: SPR (Biacore T200), antibody captured on anti-human IgG1 Fc chip, TG2 injected; calcium condition not marked in the row
Protocol: (§2) Recombinant cynomolgus monkey TG2 was obtained from Trenzyme. Surface plasmon resonance (SPR) was measured on a Biacore T200 instrument (GE Healthcare). CM5 chips (GE Healthcare cat. no.: BR-1006-68) were coated with monoclonal mouse anti-human IgG1 (Fc) (MAH) antibody (GE Healthcare cat. no.: BR-1008-39) by amine-coupling as described in the manufacturers instructions. HBS-EP+ buffer (0.01 M HEPES, 0.15 M NaCl, 3 mM EDTA, 0.05% v/v Surfactant P20) and HBS-P+ buffer (0.01 M HEPES, 0.15 M NaCl, 0.05% Surfactant P20) were purchased from GE Healthcare as 10× stocks (cat. nos.: BR-1006-69 and BR-1006-71). Calcium Chloride solution was obtained from Sigma Aldrich (cat. no.:21115).
(§3) The method employed to determine the affinity of the anti-TG2 antibodies involved the capture of the chimeric or humanised antibodies on a MAH coated CM5 chip, followed by the injection of a series of TG2 samples in running buffer. The running buffer was 1×HBS-P+ containing 1 mM CaCl_2, or 1×HBS-EP+ for calcium-free experiments. Antibody capture was carried out for a contact time of 120 seconds at a flow rate of 10 μl/min resulting in the capture of approximately 40-80 RU. TG2 was injected over the immobilised antibody at concentrations ranging from 25 nM to 400 nM with a contact time up to 600 seconds at a flow rate of 30 μl/min. Dissociation of TG2 was typically measured for up to 5400 seconds (1.5 hours). Regeneration of the chip was then performed using 3 M MgCl_2, for a contact time of 60 seconds at a flow rate of […], followed by a 300 s stabilisation period before the next sample. For each of human and cynomolgus monkey TG2, at least 5 injections at a variety of concentrations were performed in at least two separate experiments.
(§4) Kinetic data were exported from the Biacore T200 Evaluation Software and analysed using GraphPad Prism, where the association phases and dissociation phases were analysed separately using a one phase association model and one-phase exponential decay model respectively. Association rates ($kon$) were calculated for each curve individually, and dissociation rates ($koff$) values from the long dissociation phase data collected. Where $koff$ values were calculated to be $<1\times10^-5$ s^-1, values were set at 1×10^-5 for analysis, as rates slower than this could not be estimated accurately.

[6] = molecular target: T2, cynomolgus monkey TG2; test: as above
Protocol: as §2, §3, §4

[7] = molecular target: T1, human transglutaminase type 2 (TG2); test: cell-based or functional assay; remark: listed apart in the source
[8] = molecular target: T1, human transglutaminase type 2 (TG2); test: cell-based or functional assay; remark: listed apart in the source
[9] = molecular target: T1, human transglutaminase type 2 (TG2); test: ELISA on immobilised human TG2; r2 0.9771; EC50 95% confidence range 0.04636 to 0.08491 [panel A]
Protocol: as §1

[10] = molecular target: T2, cynomolgus monkey TG2; test: ELISA on immobilised cynomolgus monkey TG2; r2 0.9361; EC50 95% confidence range 0.04198 to 0.1296 [panel A]
Protocol: as §1

[11] = molecular target: T1, human transglutaminase type 2 (TG2); test: ELISA on immobilised human TG2; r2 0.9792; EC50 95% confidence range ND [panel A]
Protocol: as §1

[12] = molecular target: T2, cynomolgus monkey TG2; test: ELISA on immobilised cynomolgus monkey TG2; r2 0.9329; EC50 95% confidence range 0.03522 to 0.08934 [panel A]
Protocol: as §1

Binder	IC50 of enzymatic inhibition, dansylated lysine incorporation into N,N-dimethylated casein [continued), panel D] [1] [nM]	IC50 of enzymatic inhibition, dansylated lysine incorporation into N,N-dimethylated casein [panel B] [2] [nM]	EC50 [3] [nM]	EC50 [4] [nM]	Kd [5] [nM]	koff [5] [s⁻¹]	kon [5] [M⁻¹ s⁻¹]	Kd [6] [nM]	koff [6] [s⁻¹]	kon [6] [M⁻¹ s⁻¹]	IC50, extracellular TG activity of HK-2 cells, biotin cadaverine incorporation into fibronectin [7] [nM]	IC50 of enzymatic inhibition, dansylated lysine incorporation into N,N-dimethylated casein [panel B] [8] [nM]	EC50 [9] [nM]	EC50 [10] [nM]	IC50 of enzymatic inhibition, dansylated lysine incorporation into N,N-dimethylated casein [panel A] [8] [nM]	IC50 of enzymatic inhibition, dansylated lysine incorporation into N,N-dimethylated casein [panel A] [2] [nM]	EC50 [11] [nM]	EC50 [12] [nM]
hAB004 (hAB001AE) humanised AB1 antibody (antibody, V domains shown, they were captured by anti-human IgG1 (Fc); also called Heavy Chain version RHA with Light Chain version RKE) VH: EVQLLESGGGLVQPGGSLRLSCAASGFTFSSSAMSWVRQAPGKGLEWVSTISVGGGKTYYPDSVKGRFTISRDNSKNTLYLQMNSLRAEDTAVYYCAKLISLYWGQGTLVTVSS VL: EIVLTQSPSSLSASVGDRVTITCKASQDINSYLTWYQQKPGKAPKLLIYRTNRLFDGVPSRFSGSGSGTDFFFTISSLQPEDFGTYYCLQYDDFPYTFGGGTKLEIK	3.85	7.85	0.02	0.0612	0.12	2.4e-05	200000	0.11	1.8e-05	160000	–	–	–	–	–	–	–	–
hBB001BB humanised BB7 antibody (antibody, V domains shown, BB is read as heavy chain hBB001HB (BB7_RHB) with kappa chain hBB001KB (BB7_RKB)) VH: EVQLLESGGGLVQPGGSLRLSCAASGIIFSSSAMSWVRQAPGKGLEWVATISSGGRSTYYPDSVKGRFTVSRDSSKNTLYLQMNSLRAEDTAVYYCAKLISPYWGQGTLVTVSS VL: DIKMTQSPSSLSASVGDRVTITCKASQDINSYLTWFQQKPGKAPKTLIYLTNRLMDGVPSRFSGSGSGQEFLLTISSLQPEDFATYYCLQYVDFPYTFGQGTKVEIK	–	–	–	–	< 0.04	< 1e-05	240000	0.14	3.7e-05	270000	4.9	0.985	0.0627	0.0738	–	–	–	–
hBB001AA humanised BB7 antibody (antibody, V domains shown, captured by anti-human IgG1 (Fc); also called hBB01AA) VH: EVQLLESGGGLVQPGGSLRLSCAASGFTFSSSAMSWVRQAPGKGLEWVSTISSGGRSTYYPDSVKGRFTISRDNSKNTLYLQMNSLRAEDTAVYYCAKLISPYWGQGTLVTVSS VL: DIQMTQSPSSLSASVGDRVTITCKASQDINSYLTWFQQKPGKAPKSLIYLTNRLMDGVPSRFSGSGSGTDFFLTISSLQPEDFATYYCLQYVDFPYTFGQGTKVEIK	–	–	–	–	–	–	270000	< 0.03	< 1e-05	300000	19.8	–	–	–	5.99	8.51	~0.0474	0.0561
